Target: T1, DinG (Escherichia coli, UniProt P27296 1-716)
T1 sequence: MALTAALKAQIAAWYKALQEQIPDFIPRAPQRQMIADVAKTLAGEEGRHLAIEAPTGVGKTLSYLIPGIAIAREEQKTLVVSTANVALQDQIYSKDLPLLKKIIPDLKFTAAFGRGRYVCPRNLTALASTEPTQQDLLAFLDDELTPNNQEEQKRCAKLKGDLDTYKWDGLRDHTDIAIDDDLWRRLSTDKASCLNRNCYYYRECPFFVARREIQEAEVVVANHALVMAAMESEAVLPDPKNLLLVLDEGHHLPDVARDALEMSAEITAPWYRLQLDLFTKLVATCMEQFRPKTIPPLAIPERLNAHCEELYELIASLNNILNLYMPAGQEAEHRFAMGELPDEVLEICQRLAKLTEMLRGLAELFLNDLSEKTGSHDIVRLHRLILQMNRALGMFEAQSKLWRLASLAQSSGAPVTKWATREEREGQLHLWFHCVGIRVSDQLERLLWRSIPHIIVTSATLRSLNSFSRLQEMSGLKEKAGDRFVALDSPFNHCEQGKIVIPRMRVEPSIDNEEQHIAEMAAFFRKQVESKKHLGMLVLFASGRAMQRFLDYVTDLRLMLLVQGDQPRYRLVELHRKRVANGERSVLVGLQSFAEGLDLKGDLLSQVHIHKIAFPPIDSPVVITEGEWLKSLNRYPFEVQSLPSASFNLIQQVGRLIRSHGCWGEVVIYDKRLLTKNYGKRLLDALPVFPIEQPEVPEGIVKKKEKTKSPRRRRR
Assay: X-ray crystallography (2.5 A); binary complex, no nucleotide; MST: 25 mM Tris pH 8.0, 200 mM NaCl, 1 mM DTT, 5% glycerol, 25 C, 10 nM ssDNA
Conditions: protein: recombinant; tags: His6-MBP-TEV N-terminal, removed by TEV

TTTTTTTTTTTT (ssDNA) [dT12 (12 base oligo-dT)]: binds.

Source: publication PMC6300356, “DNA translocation mechanism of an XPD family helicase”
